Biological target: GAAP-1 (Homo sapiens) (UniProt P15822)
Test: cell_activity
Details: luciferase vs empty vector

GAAP-1 (Homo sapiens), sequence (P15822 other isoform, or with tags, fused parts or gaps): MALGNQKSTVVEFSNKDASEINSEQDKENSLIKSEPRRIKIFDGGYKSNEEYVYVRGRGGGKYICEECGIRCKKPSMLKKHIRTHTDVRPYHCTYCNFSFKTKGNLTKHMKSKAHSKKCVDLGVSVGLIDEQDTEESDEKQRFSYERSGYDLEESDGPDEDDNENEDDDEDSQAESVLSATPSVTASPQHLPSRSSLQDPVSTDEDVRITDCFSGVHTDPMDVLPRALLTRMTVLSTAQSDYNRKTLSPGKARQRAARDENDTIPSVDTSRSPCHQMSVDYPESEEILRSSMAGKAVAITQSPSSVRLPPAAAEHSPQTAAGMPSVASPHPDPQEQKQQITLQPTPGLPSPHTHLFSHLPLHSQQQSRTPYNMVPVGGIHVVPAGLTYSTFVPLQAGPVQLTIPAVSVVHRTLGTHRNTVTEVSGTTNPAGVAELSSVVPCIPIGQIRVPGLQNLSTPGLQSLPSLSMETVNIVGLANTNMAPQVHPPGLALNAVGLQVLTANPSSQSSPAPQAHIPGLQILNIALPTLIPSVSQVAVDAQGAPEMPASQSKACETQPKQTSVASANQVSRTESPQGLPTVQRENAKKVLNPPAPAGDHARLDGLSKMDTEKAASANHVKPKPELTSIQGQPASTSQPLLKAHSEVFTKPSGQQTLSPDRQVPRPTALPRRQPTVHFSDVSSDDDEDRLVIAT

With p53 promoter luciferase as the substance, how does the activity (K562 in text, U937 in figure legend) read?
The activity was 2.5 fold.

How did the activity turn out when IPCS-SV40 chimeric promoter was run?
The activity was 2.5 fold.

With IRF1 promoter luciferase as the substance, how does the activity read?
Its activity is 2.5 fold.

Reference: patent US20050112108
